What was measured:
Test in all cases: ELONA (direct, immobilized protein)
[1] = target: SARS-CoV-2 Alpha VOC spike (S) protein (SARS-CoV-2 (Alpha variant)) (UniProt P0DTC2)
[2] = target: SARS-CoV-2 Delta VOC spike (S) protein (SARS-CoV-2 (Delta variant)) (UniProt P0DTC2)
[3] = target: SARS-CoV-2 Omicron VOC spike (S) protein (SARS-CoV-2 (Omicron variant)) (UniProt P0DTC2)

AGTTAGCCGTCATTCAGACGATTTGTCCGTGTTACGATTGGGGAACGTGGATGACATTCTGGACACTCGCCATGCTCGAT [Alpha Apt (Bio)]
Kd [1]: 194 nM

ATCGAGCATGGCGAGTGTCCTATCCCCCATCAACTCAACCCAACCAGTACGACTCCTCCTCGTCTGAATGACGGCTAACT [Delta Apt (Bio)]
Kd [2]: 112 nM

CTGGCCTCACTGGATACTCTAAGACTATTGGTCAAGTTTGCCTTGTCAAGGCTATTGGTCAAGGCAAGGCTGGCCAACCCATGGGTGGAGTTTAGCCAG [Omicron Apt (Bio)]
Kd [3]: 32 nM

Reference: publication PMC11868117
